Measurements published in publication PMC4148589.

Target: CaV1.1 chimera containing the I–II loop of the CaV2.1 α1A subunit (pc-α1SI–IIA)
Assay: FRAP

Sequence of skeletal muscle β1a subunit, GFP-tagged (pcDNA3-β1a-GFP) (P19517 whole entry): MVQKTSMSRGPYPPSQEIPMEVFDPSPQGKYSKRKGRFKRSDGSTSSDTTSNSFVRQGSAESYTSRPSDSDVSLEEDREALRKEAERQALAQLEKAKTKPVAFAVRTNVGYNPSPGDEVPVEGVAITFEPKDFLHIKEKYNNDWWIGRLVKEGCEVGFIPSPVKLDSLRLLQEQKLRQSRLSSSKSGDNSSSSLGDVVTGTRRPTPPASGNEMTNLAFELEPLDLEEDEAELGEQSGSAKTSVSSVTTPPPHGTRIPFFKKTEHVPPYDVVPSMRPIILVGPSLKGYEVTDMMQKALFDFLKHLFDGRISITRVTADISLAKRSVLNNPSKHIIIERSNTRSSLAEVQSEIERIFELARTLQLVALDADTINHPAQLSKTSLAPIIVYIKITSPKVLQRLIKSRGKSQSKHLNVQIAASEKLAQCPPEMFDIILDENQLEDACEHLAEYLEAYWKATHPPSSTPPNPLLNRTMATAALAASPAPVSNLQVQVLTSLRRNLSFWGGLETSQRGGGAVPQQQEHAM

skeletal muscle β1a subunit, GFP-tagged (pcDNA3-β1a-GFP) (from UniProt P19517 1-524) (natural protein)
R75 (fractional fluorescence recovery 75 s after bleaching): 20.5%
